Target: Full-length Drosophila ATL (Drosophila) (UniProt Q9VC57)
Sequence (Q9VC57 whole entry): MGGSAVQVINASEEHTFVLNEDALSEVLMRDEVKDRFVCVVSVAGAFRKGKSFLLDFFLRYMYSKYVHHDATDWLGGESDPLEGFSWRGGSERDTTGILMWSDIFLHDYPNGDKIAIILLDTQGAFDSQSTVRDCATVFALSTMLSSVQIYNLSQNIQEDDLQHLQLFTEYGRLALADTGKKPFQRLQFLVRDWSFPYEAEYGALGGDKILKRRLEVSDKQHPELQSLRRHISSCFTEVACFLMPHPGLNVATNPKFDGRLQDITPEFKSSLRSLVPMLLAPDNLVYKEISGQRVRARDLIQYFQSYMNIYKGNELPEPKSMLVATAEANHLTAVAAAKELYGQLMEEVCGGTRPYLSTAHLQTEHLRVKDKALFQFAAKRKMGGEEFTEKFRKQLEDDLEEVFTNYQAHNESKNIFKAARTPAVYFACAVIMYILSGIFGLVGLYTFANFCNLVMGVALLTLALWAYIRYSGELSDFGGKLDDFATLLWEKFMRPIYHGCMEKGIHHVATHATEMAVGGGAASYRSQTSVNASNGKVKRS

- GTP-dependent fusion of dmATL donor and acceptor vesicles (NBD dequenching), dmLnp-NT at 5 times the concentration of dmATL, against samples without Lnp: 50%
Substance: dmLnp-NT-Flag-GST (domain or fragment)

Source: article PMC6588657 (2018)
